Data on eleven variants can be found in IntAct's records for PubMed 31515488.

B1: Zinc finger protein 473 (Homo sapiens), Q8WTR7 (parent)
chain: MAEEFVTLKDVGMDFTLGDWEQLGLEQGDTFWDTALDNCQDLFLLDPPRPNLTSHPDGSEDLEPLAGGSPEATSPDVTETKNSPLMEDFFEEGFSQEIIEMLSKDGFWNSNFGEACIEDTWLDSLLGDPESLLRSDIATNGESPTECKSHELKRGLSPVSTVSTGEDSMVHNVSEKTLTPAKSKEYRGEFFSYSDHSQQDSVQEGEKPYQCSECGKSFSGSYRLTQHWITHTREKPTVHQECEQGFDRNASLSVYPKTHTGYKFYVCNEYGTTFSQSTYLWHQKTHTGEKPCKSQDSDHPPSHDTQPGEHQKTHTDSKSYNCNECGKAFTRIFHLTRHQKIHTRKRYECSKCQATFNLRKHLIQHQKTHAAKTTSECQECGKIFRHSSLLIEHQALHAGEEPYKCNERGKSFRHNSTLKIHQRVHSGEKPYKCSECGKAFHRHTHLNEHRRIHTGYRPHKCQECVRSFSRPSHLMRHQAIHTAEKPYSCAECKETFSDNNRLVQHQKMHTVKTPYECQECGERFICGSTLKCHESVHAREKQGFFVSGKILDQNPEQKEKCFKCNKCEKTFSCSKYLTQHERIHTRGVKPFECDQCGKAFGQSTRLIHHQRIHSRVRLYKWGEQGKAISSASLIKLQSFHTKEHPFKCNECGKTFSHSAHLSKHQLIHAGENPFKCSKCDRVFTQRNYLVQHERTHARKKPLVCNECGKTFRQSSCLSKHQRIHSGEKPYVCDYCGKAFGLSAELVRHQRIHTGEKPYVCQECGKAFTQSSCLSIHRRVHTGEKPYRCGECGKAFAQKANLTQHQRIHTGEKPYSCNVCGKAFVLSAHLNQHLRVHTQETLYQCQRCQKAFRCHSSLSRHQRVHNKQQYCL
partner: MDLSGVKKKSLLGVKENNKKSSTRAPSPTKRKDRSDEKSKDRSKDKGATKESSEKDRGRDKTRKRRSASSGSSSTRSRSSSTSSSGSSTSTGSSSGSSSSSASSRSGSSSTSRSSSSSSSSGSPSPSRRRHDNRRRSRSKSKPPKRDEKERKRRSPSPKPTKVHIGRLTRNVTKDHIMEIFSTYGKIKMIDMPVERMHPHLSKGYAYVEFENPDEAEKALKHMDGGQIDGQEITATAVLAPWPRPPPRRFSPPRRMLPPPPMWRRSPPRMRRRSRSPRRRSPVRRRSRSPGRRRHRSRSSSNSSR
B2: Four and a half LIM domains protein 5 (Homo sapiens), Q5TD97 (parent)
chain: MTTAHFYCQYCTASLLGKKYVLKDDSPYCVTCYDRVFSNYCEECKKPIESDSKDLCYKDRHWHEGCFKCTKCNHSLVEKPFAAKDERLLCTECYSNECSSKCFHCKRTIMPGSRKMEFKGNYWHETCFVCENCRQPIGTKPLISKESGNYCVPCFEKEFAHYCNFCKKVITSGGITFCDQLWHKECFLCSGCRKDLCEEQFMSRDDYPFCVDCYNHLYANKCVACSKPISGLTGAKFICFQDSQWHSECFNCGKCSVSLVGKGFLTQNKEIFCQKCGSGMDTDI
partner: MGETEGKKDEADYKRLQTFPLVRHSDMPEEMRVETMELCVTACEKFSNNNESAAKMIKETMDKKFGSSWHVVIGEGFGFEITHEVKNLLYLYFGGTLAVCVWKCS
B3: E3 ubiquitin-protein ligase DZIP3 (Homo sapiens), Q86Y13 (parent)
chain: MDSLPDEFFVRHPAVEDQRKEETENKLEKSSGQLNKQENDIPTDLVPVNLLLEVKKLLNAINTLPKGVVPHIKKFLQEDFSFQTMQREVAANSQNGEEIVPALTLRFLITQLEAALRNIQAGNYTAHQINIGYYLTLLFLYGVALTERGKKEDYTEAENKFLVMKMMIQENEICENFMSLVYFGRGLLRCAQKRYNGGLLEFHKSLQEIGDKNDHWFDIDPTEDEDLPTTFKDLLNNFIKTTESNIMKQTICSYLDCERSCEADILKNTSYKGFFQLMCSKSCCVYFHKICWKKFKNLKYPGENDQSFSGKKCLKEGCTGDMVRMLQCDVPGIVKILFEVVRKDEYITIENLGASYRKLISLKITDTDIRPKISLKFNTKDEMPIFKLDYNYFYHLLHIIIISGTDIVRQIFDEAMPPPLLKKELLIHKNVLESYYNHLWTNHPLGGSWHLLYPPNKELPQSKQFDLCLLLALIKHLNVFPAPKKGWNMEPPSSDISKSADILRLCKYRDILLSEILMNGLTESQFNSIWKKVSDILLRLGMMQEDIDKVKENPIENISLDYHQLSVYLGIPVPEIIQRMLSCYQQGIALQSITGSQRIEIEELQNEEEELSPPLMEYNINVKSHPEIQFAEINKDGTSIPSESSTESLKDLQEVKSKQRKKKKTKNKKNKDSKEDQVPYVVEKEEQLRKEQANPHSVSRLIKDDASDVQEDSAMEDKFYSLDELHILDMIEQGSAGKVTTDYGETEKERLARQRQLYKLHYQCEDFKRQLRTVTFRWQENQMQIKKKDKIIASLNQQVAFGINKVSKLQRQIHAKDNEIKNLKEQLSMKRSQWEMEKHNLESTMKTYVSKLNAETSRALTAEVYFLQCRRDFGLLHLEQTEKECLNQLARVTHMAASNLESLQLKAAVDSWNAIVADVRNKIAFLRTQYNEQINKVKQGFALSTLPPVQLPPPPPSPEILMQQFLGRPLVKESFFRPILTVPQMPAVCPGVVSATGQPRAPLMTGIAWALPAPVGDAVPPSAGLRSDPSIMNWERITDRLKTAFPQQTRKELTDFLRKLKDAYGKSLSELTFDEIVCKISQFIDPKKSQSQGKSVSNVNCVSPSHSPSQPDAAQPPKPAWRPLTSQGPATWEGASNPDEEEEEEEPCVICHENLSPENLSVLPCAHKFHAQCIRPWLMQQGTCPTCRLHVLLPEEFPGHPSRQLPKI
B4: Cell growth regulator with RING finger domain protein 1 (Homo sapiens), Q99675 (parent)
chain: MAAVFLVTLYEYSPLFYIAVVFTCFIVTTGLVLGWFGWDVPVILRNSEETQFSTRVFKKQMRQVKNPFGLEITNPSSASITTGITLTTDCLEDSLLTCYWGCSVQKLYEALQKHVYCFRISTPQALEDALYSEYLYQEQYFIKKDSKEEIYCQLPRDTKIEDFGTVPRSRYPLVALLTLADEDDREIYDIISMVSVIHIPDRTYKLSCRILYQYLLLAQGQFHDLKQLFMSANNNFTPSNNSSSEEKNTDRSLLEKVGLSESEVEPSEENSKDCVVCQNGTVNWVLLPCRHTCLCDGCVKYFQQCPMCRQFVQESFALCSQKEQDKDKPKTL
partner: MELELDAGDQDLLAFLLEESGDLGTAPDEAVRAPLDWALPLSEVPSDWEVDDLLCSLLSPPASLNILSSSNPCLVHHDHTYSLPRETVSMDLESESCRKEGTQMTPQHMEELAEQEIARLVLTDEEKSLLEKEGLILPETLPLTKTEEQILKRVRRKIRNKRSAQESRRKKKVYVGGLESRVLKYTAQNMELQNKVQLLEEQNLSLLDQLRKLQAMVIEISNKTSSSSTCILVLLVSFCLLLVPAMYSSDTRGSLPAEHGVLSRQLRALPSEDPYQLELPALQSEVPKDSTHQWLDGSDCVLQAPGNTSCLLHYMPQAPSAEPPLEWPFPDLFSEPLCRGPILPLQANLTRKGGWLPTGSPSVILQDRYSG
B5: Tuftelin-interacting protein 11 (Homo sapiens), Q9UBB9 (parent)
chain: MSLSHLYRDGEGRIDDDDDERENFEITDWDLQNEFNPNRQRHWQTKEEATYGVWAERDSDDERPSFGGKRARDYSAPVNFISAGLKKGAAEEAELEDSDDEEKPVKQDDFPKDFGPRKLKTGGNFKPSQKGFAGGTKSFMDFGSWERHTKGIGQKLLQKMGYVPGRGLGKNAQGIINPIEAKQRKGKGAVGAYGSERTTQSMQDFPVVDSEEEAEEEFQKELSQWRKDPSGSKKKPKYSYKTVEELKAKGRISKKLTAPQKELSQVKVIDMTGREQKVYYSYSQISHKHNVPDDGLPLQSQQLPQSGKEAKAPGFALPELEHNLQLLIDLTEQEIIQNDRQLQYERDMVVNLFHELEKMTEVLDHEERVISNLSKVLEMVEECERRMQPDCSNPLTLDECARIFETLQDKYYEEYRMSDRVDLAVAIVYPLMKEYFKEWDPLKDCTYGTEIISKWKSLLENDQLLSHGGQDLSADAFHRLIWEVWMPFVRNIVTQWQPRNCDPMVDFLDSWVHIIPVWILDNILDQLIFPKLQKEVENWNPLTDTVPIHSWIHPWLPLMQARLEPLYSPIRSKLSSALQKWHPSDSSAKLILQPWKDVFTPGSWEAFMVKNIVPKLGMCLGELVINPHQQHMDAFYWVIDWEGMISVSSLVGLLEKHFFPKWLQVLCSWLSNSPNYEEITKWYLGWKSMFSDQVLAHPSVKDKFNEALDIMNRAVSSNVGAYMQPGARENIAYLTHTERRKDFQYEAMQERREAENMAQRGIGVAASSVPMNFKDLIETKAEEHNIVFMPVIGKRHEGKQLYTFGRIVIYIDRGVVFVQGEKTWVPTSLQSLIDMAK
partner: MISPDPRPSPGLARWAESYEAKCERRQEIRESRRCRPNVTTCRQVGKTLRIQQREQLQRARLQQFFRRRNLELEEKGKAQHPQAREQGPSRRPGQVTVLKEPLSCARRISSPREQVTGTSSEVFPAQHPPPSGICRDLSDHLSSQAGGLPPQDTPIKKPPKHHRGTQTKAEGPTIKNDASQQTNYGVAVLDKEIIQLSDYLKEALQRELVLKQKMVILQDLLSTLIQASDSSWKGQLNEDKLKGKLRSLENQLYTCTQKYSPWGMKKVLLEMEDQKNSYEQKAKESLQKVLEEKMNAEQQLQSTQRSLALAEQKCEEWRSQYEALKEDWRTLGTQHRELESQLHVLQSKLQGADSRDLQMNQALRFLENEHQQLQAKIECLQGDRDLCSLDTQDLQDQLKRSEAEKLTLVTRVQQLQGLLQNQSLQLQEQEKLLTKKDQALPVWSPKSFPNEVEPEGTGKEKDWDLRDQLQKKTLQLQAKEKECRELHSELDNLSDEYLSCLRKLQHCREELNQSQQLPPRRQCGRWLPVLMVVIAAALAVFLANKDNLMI

The first test covers variants of B1. As to conditions: with rnps1_human RNPS1, Q15287.
In the case of R223C, the “effect of a mutation on the interaction” value is given as “with no effect”. For the variant T654I, the “effect of a mutation on the interaction” value was “with no effect”. Same read-out and setting: to S662A belongs “with no effect”; to R605Q, “disrupting interaction strength”.

The variants in the next test derive from B2. As to conditions: with dnal4_human DNAL4, O96015.
Consider R60W, for which the “effect of a mutation on the interaction” value was “with no effect”.

Take M202L: the “effect of a mutation on the interaction” value is recorded as “with no effect”. With R204G, the “effect of a mutation on the interaction” value is listed as “with no effect”. On to D24Y, for which the “effect of a mutation on the interaction” value is given as “with no effect”.

Variants of B3 are the subject of another test. As to conditions: with ub2e2_human UBE2E2, Q96LR5.
ub2e2_human UBE2E2, Q96LR5, sequence (Q96LR5 whole entry): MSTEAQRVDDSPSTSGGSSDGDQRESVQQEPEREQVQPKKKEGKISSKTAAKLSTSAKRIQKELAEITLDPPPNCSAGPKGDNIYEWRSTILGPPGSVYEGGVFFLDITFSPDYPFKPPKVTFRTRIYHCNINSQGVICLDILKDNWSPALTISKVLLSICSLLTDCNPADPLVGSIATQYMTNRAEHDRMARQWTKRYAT
For F767L, the “effect of a mutation on the interaction” value is “with no effect”.

A further test covers variants of B3. As to conditions: with zch10_human ZCCHC10, Q8TBK6.
zch10_human ZCCHC10, Q8TBK6, sequence (Q8TBK6 whole entry): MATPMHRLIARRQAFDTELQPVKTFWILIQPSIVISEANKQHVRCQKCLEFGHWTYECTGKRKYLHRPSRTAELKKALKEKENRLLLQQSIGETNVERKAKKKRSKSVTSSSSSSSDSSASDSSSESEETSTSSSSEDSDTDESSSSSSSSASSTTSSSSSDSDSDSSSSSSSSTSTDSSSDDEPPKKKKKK
With F767L, the “effect of a mutation on the interaction” value is reported as “with no effect”.

The variants in another test derive from B4. As to conditions: with creb3_human CREB3, O43889.
As to R185W, the “effect of a mutation on the interaction” value is “disrupting interaction strength”.

A further test covers variants of B5. Particulars: with TRAF3IP3, Q9Y228.
As to M140V, the “effect of a mutation on the interaction” value is on record as “with no effect”.
